{
  "source": "the RNAGym collection of RNA variant scans (doi:10.1073/pnas.2313332121)",
  "parents": {"B1": {"name": "TPR t1 (parent)", "chain": "GACCAAUCUGCCCUCAGAGCUCGAGAACAUCUUCGGAUGCAGAGGAGGCAGGCUUCGGUGGCGCGAUAGCGCCAACGUCCUCAACCUCCAAUGCAUCCCACCACAUGAUGAUGCCUGAAGAGCCUUGGUUUUUUG"}},
  "data": [
    {"variants_of": "B1", "assay": "polymerase ribozyme fitness, log enrichment relative to wild type (log ratio); higher = more active; in vitro selection for triplet polymerase activity", "outline": "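Streptavidin-bead capture of gel-excised extended constructs, followed by RT-PCR, closed a single triplicate in vitro selection round. That round began by annealing PCR-built, transcribed mutant libraries of each subunit of a heterodimeric triplet polymerase ribozyme with a biotinylated primer, the partner subunit and triplets, then incubating them frozen at −7 °C. After Illumina sequencing of inputs and outputs, genotypes needed ≥10 input reads and ≥1 read per output. Fitness is the base-2 logarithm of genotype enrichment over wild-type enrichment, using inverse-variance-weighted replicate averages.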", "values": [
      {"variant": "C4U C62U C124G", "polymerase ribozyme fitness (log ratio)": 1.31},
      {"variant": "C13G G51C C104U G120C", "polymerase ribozyme fitness (log ratio)": -4.18},
      {"variant": "C3U C20G", "polymerase ribozyme fitness (log ratio)": -3.47},
      {"variant": "U32C G48U G69A", "polymerase ribozyme fitness (log ratio)": -3.8},
      {"variant": "C56A U92G", "polymerase ribozyme fitness (log ratio)": -2.6},
      {"variant": "U9G G19U G44A G58C C64U A74G", "polymerase ribozyme fitness (log ratio)": -4.3},
      {"variant": "C4A C80A C101U A121G", "polymerase ribozyme fitness (log ratio)": -1.22},
      {"variant": "G63U G71C G113A", "polymerase ribozyme fitness (log ratio)": -6.74},
      {"variant": "C88G G120A U129A", "polymerase ribozyme fitness (log ratio)": -1.48},
      {"variant": "C56G C94G U112A", "polymerase ribozyme fitness (log ratio)": -0.000426},
      {"variant": "C11G G77C", "polymerase ribozyme fitness (log ratio)": -0.624},
      {"variant": "U106G C114U", "polymerase ribozyme fitness (log ratio)": -1.86},
      {"variant": "C11G A74U A108G", "polymerase ribozyme fitness (log ratio)": -2.79},
      {"variant": "C73G C86U", "polymerase ribozyme fitness (log ratio)": -1.29},
      {"variant": "C20U G120C", "polymerase ribozyme fitness (log ratio)": -0.868},
      {"variant": "A18U G36U G48U G69U G120U G122U", "polymerase ribozyme fitness (log ratio)": -1.69},
      {"variant": "G42U G47C C102A U112G G120U", "polymerase ribozyme fitness (log ratio)": -6.76},
      {"variant": "A27G C115A", "polymerase ribozyme fitness (log ratio)": -3.25},
      {"variant": "C8G G39A G117U U132A", "polymerase ribozyme fitness (log ratio)": 0.363},
      {"variant": "A26U G60U U78C", "polymerase ribozyme fitness (log ratio)": -3.09},
      {"variant": "C13G A16C C85G A121C", "polymerase ribozyme fitness (log ratio)": -3.75},
      {"variant": "G45U G47A U116C", "polymerase ribozyme fitness (log ratio)": -5.47},
      {"variant": "C70A C80A U126C", "polymerase ribozyme fitness (log ratio)": -5.37},
      {"variant": "C8G C13A A91G U106G G117U", "polymerase ribozyme fitness (log ratio)": -3.24},
      {"variant": "C53A U87C", "polymerase ribozyme fitness (log ratio)": 0.506},
      {"variant": "G10U C11G G60C A95G", "polymerase ribozyme fitness (log ratio)": -0.947},
      {"variant": "C79U C94G", "polymerase ribozyme fitness (log ratio)": -0.831},
      {"variant": "C15U G63A C73U A90C G110U", "polymerase ribozyme fitness (log ratio)": -5.03},
      {"variant": "A100C C123A", "polymerase ribozyme fitness (log ratio)": -0.801},
      {"variant": "C3A G47A C72A A100C", "polymerase ribozyme fitness (log ratio)": -2.89},
      {"variant": "A2C C3U U59C C104A", "polymerase ribozyme fitness (log ratio)": -4.21},
      {"variant": "C20U G57A G63A C115A", "polymerase ribozyme fitness (log ratio)": -3.54},
      {"variant": "C11A G71A A91G A121U", "polymerase ribozyme fitness (log ratio)": 0.674},
      {"variant": "C53G C94A C115G G128C", "polymerase ribozyme fitness (log ratio)": -4.56},
      {"variant": "G60U U112A", "polymerase ribozyme fitness (log ratio)": 1.6},
      {"variant": "G93U U112G", "polymerase ribozyme fitness (log ratio)": -1.63},
      {"variant": "C73G C85U G93U A95G C123A", "polymerase ribozyme fitness (log ratio)": -3.28},
      {"variant": "G117C A121G", "polymerase ribozyme fitness (log ratio)": -2.23},
      {"variant": "G45A C62A U112G C115G", "polymerase ribozyme fitness (log ratio)": -3.1},
      {"variant": "G93A G117C U130G", "polymerase ribozyme fitness (log ratio)": -5.98},
      {"variant": "A46U G71U", "polymerase ribozyme fitness (log ratio)": -1.16},
      {"variant": "A5G U112A G127U", "polymerase ribozyme fitness (log ratio)": 0.804},
      {"variant": "G19A C40U C53A G58C G93U", "polymerase ribozyme fitness (log ratio)": -4.4},
      {"variant": "U9A C22U", "polymerase ribozyme fitness (log ratio)": -3.34},
      {"variant": "C3G C64U G69A", "polymerase ribozyme fitness (log ratio)": -2.41},
      {"variant": "C34A C53U C114A U129C", "polymerase ribozyme fitness (log ratio)": -5.56},
      {"variant": "G61C G128A", "polymerase ribozyme fitness (log ratio)": -3.41},
      {"variant": "A105U", "polymerase ribozyme fitness (log ratio)": -1.69},
      {"variant": "C49A C94U", "polymerase ribozyme fitness (log ratio)": 0.159},
      {"variant": "G52U C114U U125A", "polymerase ribozyme fitness (log ratio)": -4.04},
      {"variant": "A41U G45C G60A C62U", "polymerase ribozyme fitness (log ratio)": -2.39},
      {"variant": "A6G C11A C34A G47A A111C", "polymerase ribozyme fitness (log ratio)": -5.04},
      {"variant": "A6U C11U A46C G51C G57U A121C", "polymerase ribozyme fitness (log ratio)": -2.71},
      {"variant": "C8G A91U A95C", "polymerase ribozyme fitness (log ratio)": -1.32},
      {"variant": "C49G C70U A84G U126G U129G G135C", "polymerase ribozyme fitness (log ratio)": -4.25},
      {"variant": "A26U U96A U116G A121G", "polymerase ribozyme fitness (log ratio)": -3.67},
      {"variant": "A29U A37U C40U G71C", "polymerase ribozyme fitness (log ratio)": -2.78},
      {"variant": "U59A C89U C124A U125A", "polymerase ribozyme fitness (log ratio)": 1.78},
      {"variant": "U14A C22A C101A U116G C124U", "polymerase ribozyme fitness (log ratio)": -5.17},
      {"variant": "A5U C8G G63U", "polymerase ribozyme fitness (log ratio)": -0.752},
      {"variant": "U54G G60C U112A G117C", "polymerase ribozyme fitness (log ratio)": -5},
      {"variant": "A29U G47C C73G U109A", "polymerase ribozyme fitness (log ratio)": -0.853},
      {"variant": "G19C A41U C64G C98A U109A", "polymerase ribozyme fitness (log ratio)": -6.43},
      {"variant": "A50U A84G A111C", "polymerase ribozyme fitness (log ratio)": -4.92},
      {"variant": "G39C C49U", "polymerase ribozyme fitness (log ratio)": -1.61},
      {"variant": "C13G A37G G48C", "polymerase ribozyme fitness (log ratio)": -3.17},
      {"variant": "A91U A121C C124A", "polymerase ribozyme fitness (log ratio)": 0.449},
      {"variant": "A29G A41G", "polymerase ribozyme fitness (log ratio)": -1.22},
      {"variant": "C11A C15A A37G C40A G120U", "polymerase ribozyme fitness (log ratio)": -6.11},
      {"variant": "C40G C104U G113C G122A", "polymerase ribozyme fitness (log ratio)": -3.43},
      {"variant": "C11U A18G", "polymerase ribozyme fitness (log ratio)": -3.57},
      {"variant": "G47A C70U", "polymerase ribozyme fitness (log ratio)": -1.86},
      {"variant": "C53U G61A C82A C86G U133A", "polymerase ribozyme fitness (log ratio)": -1.32},
      {"variant": "A27U G69U U132C", "polymerase ribozyme fitness (log ratio)": -1.95},
      {"variant": "G23A G71A", "polymerase ribozyme fitness (log ratio)": -5.75},
      {"variant": "G51U G71C U109G G117U C124G", "polymerase ribozyme fitness (log ratio)": -7.73},
      {"variant": "A16G C22A G47U G48U C64U C123G", "polymerase ribozyme fitness (log ratio)": -6.67},
      {"variant": "A6C C20A A26C G60A U116C U132C", "polymerase ribozyme fitness (log ratio)": -7.63},
      {"variant": "C8U A29U U59C A121G", "polymerase ribozyme fitness (log ratio)": -1.03},
      {"variant": "A24C G36U A37U G42U G61A C79A G110C C123U", "polymerase ribozyme fitness (log ratio)": -7.34},
      {"variant": "G17C U21A G39A U112C C115A", "polymerase ribozyme fitness (log ratio)": -1.1},
      {"variant": "C20A C76U C82G U96G", "polymerase ribozyme fitness (log ratio)": -4.53},
      {"variant": "C4G C22G G42A C53G", "polymerase ribozyme fitness (log ratio)": -4.26}
    ]}
  ]
}
